Test results published in patent publication US20090304686A1, “INTERFERING IN ACTIVATION OF AN IMMUNE CELL BY INFLUENCING INTERACTION OF LAIR AND COLLAGEN” (UNIVERSOTAIR MEDISCH CENTRUM UTRECHT, priority 2006, published 2009).

T1: human collagen type III (Homo sapiens, UniProt P02461)
T1 construct: purchased Sigma
T1 sequence (P02461 154-1221 limits assumed): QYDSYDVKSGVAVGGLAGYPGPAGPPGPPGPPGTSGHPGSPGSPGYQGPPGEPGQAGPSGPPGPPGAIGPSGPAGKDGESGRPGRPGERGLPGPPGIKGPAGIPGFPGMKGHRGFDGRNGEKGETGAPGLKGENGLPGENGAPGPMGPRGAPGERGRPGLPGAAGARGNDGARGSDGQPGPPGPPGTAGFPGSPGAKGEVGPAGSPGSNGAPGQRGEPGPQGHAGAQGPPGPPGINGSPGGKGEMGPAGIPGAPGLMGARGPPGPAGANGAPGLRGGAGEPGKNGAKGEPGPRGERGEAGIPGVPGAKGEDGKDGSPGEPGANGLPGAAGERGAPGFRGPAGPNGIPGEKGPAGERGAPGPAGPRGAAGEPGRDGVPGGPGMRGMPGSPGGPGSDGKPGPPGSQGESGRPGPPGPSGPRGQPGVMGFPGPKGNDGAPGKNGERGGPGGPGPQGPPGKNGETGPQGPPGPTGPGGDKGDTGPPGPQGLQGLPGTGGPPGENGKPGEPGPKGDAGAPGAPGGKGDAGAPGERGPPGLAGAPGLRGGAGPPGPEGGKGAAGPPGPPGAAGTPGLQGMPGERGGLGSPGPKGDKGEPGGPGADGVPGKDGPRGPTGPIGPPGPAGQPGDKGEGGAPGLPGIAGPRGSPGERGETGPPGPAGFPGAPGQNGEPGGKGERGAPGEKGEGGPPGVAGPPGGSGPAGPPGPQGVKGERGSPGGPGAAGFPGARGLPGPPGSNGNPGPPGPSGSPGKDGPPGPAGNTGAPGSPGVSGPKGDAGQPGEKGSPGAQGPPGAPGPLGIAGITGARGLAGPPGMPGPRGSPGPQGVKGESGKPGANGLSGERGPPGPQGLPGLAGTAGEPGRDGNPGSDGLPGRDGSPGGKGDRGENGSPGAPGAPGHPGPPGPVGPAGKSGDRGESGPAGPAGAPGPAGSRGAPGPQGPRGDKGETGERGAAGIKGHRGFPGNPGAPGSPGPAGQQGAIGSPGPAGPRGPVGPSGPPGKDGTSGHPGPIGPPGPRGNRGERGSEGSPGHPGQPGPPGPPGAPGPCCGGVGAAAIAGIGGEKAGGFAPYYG

T2: human collagen XVII (Homo sapiens, UniProt Q9UMD9)
T2 construct: Full-length human collagen XVII, HIS-tagged human collagen XIII, and human KIR3DL1 were kindly provided; expressed in transfected cells; host or cells: Ba/F3 (retroviral transduction)
T2 sequence (Q9UMD9 1-1497): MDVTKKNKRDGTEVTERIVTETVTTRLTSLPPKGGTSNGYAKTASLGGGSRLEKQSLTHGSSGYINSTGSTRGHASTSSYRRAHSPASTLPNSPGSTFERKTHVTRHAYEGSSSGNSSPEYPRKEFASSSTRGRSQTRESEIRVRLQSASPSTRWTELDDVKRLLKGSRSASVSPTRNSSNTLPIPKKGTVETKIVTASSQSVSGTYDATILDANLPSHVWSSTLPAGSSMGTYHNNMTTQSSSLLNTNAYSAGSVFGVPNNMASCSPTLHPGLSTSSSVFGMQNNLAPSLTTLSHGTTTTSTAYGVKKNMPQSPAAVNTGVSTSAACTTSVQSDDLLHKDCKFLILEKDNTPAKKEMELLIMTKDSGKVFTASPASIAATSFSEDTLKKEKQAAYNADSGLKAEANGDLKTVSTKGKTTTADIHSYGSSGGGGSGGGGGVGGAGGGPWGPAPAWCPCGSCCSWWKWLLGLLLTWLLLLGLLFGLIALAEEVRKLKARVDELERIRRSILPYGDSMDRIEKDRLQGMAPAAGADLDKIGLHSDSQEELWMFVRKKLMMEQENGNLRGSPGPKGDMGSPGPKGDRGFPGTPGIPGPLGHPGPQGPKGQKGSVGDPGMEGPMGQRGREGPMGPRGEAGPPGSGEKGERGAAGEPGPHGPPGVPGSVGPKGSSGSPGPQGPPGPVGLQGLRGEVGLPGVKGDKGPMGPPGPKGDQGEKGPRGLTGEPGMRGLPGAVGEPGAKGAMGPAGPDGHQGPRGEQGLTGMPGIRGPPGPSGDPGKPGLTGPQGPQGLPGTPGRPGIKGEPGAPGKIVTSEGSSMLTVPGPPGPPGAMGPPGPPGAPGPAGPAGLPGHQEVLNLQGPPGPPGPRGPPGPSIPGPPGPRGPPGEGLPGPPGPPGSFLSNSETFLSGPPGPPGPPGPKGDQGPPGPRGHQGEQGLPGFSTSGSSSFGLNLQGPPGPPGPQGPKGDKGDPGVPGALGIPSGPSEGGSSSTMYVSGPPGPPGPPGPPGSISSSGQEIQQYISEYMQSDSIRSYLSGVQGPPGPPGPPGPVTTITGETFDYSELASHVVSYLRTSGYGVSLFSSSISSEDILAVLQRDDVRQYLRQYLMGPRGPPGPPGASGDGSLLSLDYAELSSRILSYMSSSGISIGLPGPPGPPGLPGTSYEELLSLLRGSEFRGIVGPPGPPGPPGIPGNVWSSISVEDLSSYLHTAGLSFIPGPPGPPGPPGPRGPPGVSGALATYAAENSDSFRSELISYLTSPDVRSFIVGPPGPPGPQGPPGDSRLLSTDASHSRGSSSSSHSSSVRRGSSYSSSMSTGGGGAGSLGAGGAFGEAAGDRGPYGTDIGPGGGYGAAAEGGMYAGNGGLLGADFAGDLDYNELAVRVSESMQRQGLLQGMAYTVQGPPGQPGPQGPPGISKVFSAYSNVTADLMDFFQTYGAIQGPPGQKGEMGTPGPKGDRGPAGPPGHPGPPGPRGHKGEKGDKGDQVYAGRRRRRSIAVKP


Key:
human collagen type III = molecular target: T1, human collagen type III; test: Surface plasmon resonance (BIAcore) binding of LAIR-IgG fusion proteins to immobilized collagen III
Procedure: (§1) Surface plasmon resonance (BIAcore) binding studies were performed using a BIAcore2000 system (BIAcore AB, Uppsala, Sweden). Approximately 2000-3000 response units (RU) of acid-soluble human collagen type I or III (Sigma) were immobilized on a CM5 biosensor chip using the amine coupling kit as instructed by the supplier. Immobilized triple-helical peptides composed of GCO(GPO)10GCOG-NH2 ((GPO)10, also known as collagen-related peptide, CRP^6) and GCP(GPP)10GCPG-NH2 ((GPP)10) were described previously^6. Approximately 250 RU (GPP)10 or (GPO)10 peptide trimers were immobilized using a cysteine coupling kit according manufacturers instructions. Analysis was performed in buffer (125 mM NaCl, 2.5 mM CaCl2, 0.005% (v/v) Tween 20, and 25 mM Hepes, (pH 7.4)) at 25° C. at a flow rate of 20 μl/min for collagen I and III interaction-studies and 5 μl/min for the immobilized peptides. […] Increasing concentrations of hLAIR-1-IgG were injected and allowed to reach an equilibrium plateau for 10 minutes. The delay between injections was 13 min, during which time the biosensor chip was flushed with buffer. In case of peptide-binding studies, biosensor chips were regenerated by injection of 0.1 M H3PO4 (2 min, 5 μl/min).
(§2) Dissociation constants (Kd) and the number of binding sites expressed as the response at infinite hLAIR-1-IgG concentration (Bmax) were calculated as follows. First, the response at equilibrium (Req) was calculated for each association curve. Subsequently, Kd and Bmax were determined from the binding isotherms (Req plotted against hLAIR-1-IgG concentration) by fitting equation Req=Bmax*[hLAIR-1-IgG]/(Kd+[hLAIR-1-IgG]). The fit was calculated using computer program GraphPad Prism (GraphPad Prism version 3.00 for Windows; GraphPad Software, San Diego, Calif., USA). […]
(§3) The surface plasmon resonance binding studies were performed as described before(15). LAIR-2-IgG dimer concentration was calculated based on a theoretical mass of 82.5 kDa.

human collagen type I = molecular target: T3, human collagen type I (Homo sapiens, UniProt P02452+P08123); test: Surface plasmon resonance (BIAcore) binding of LAIR-IgG fusion proteins to immobilized collagen I
T3 construct: purchased Sigma
T3 sequence (P02452 162-1218 limits assumed): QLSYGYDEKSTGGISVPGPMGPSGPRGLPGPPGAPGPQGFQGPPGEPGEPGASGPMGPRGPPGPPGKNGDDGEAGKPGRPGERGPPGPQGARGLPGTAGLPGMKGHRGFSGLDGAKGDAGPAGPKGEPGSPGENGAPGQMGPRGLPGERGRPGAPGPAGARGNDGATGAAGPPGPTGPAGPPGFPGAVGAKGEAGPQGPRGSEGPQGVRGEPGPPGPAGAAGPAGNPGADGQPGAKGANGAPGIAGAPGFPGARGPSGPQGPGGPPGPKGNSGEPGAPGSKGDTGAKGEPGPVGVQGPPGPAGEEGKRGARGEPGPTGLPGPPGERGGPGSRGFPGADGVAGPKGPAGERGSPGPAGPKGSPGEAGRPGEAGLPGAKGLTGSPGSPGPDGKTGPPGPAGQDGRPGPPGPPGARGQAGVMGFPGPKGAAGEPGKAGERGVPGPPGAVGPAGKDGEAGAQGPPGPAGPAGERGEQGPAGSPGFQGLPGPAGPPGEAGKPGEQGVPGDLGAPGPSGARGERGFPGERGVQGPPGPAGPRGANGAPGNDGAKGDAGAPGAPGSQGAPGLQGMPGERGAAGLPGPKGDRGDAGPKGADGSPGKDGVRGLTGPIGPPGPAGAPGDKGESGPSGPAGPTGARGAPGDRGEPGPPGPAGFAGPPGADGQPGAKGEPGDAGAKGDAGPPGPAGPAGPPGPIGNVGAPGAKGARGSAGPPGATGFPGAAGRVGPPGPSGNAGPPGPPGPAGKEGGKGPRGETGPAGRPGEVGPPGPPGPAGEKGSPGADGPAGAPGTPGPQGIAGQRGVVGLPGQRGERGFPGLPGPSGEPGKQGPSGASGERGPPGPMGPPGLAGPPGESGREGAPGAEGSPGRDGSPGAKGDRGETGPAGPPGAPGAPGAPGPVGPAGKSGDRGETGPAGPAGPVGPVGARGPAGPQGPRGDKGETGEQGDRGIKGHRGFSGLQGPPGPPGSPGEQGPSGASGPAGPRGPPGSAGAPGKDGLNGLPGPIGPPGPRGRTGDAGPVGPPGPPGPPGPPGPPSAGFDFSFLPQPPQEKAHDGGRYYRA
T3 sequence (P08123 80-1119 limits assumed): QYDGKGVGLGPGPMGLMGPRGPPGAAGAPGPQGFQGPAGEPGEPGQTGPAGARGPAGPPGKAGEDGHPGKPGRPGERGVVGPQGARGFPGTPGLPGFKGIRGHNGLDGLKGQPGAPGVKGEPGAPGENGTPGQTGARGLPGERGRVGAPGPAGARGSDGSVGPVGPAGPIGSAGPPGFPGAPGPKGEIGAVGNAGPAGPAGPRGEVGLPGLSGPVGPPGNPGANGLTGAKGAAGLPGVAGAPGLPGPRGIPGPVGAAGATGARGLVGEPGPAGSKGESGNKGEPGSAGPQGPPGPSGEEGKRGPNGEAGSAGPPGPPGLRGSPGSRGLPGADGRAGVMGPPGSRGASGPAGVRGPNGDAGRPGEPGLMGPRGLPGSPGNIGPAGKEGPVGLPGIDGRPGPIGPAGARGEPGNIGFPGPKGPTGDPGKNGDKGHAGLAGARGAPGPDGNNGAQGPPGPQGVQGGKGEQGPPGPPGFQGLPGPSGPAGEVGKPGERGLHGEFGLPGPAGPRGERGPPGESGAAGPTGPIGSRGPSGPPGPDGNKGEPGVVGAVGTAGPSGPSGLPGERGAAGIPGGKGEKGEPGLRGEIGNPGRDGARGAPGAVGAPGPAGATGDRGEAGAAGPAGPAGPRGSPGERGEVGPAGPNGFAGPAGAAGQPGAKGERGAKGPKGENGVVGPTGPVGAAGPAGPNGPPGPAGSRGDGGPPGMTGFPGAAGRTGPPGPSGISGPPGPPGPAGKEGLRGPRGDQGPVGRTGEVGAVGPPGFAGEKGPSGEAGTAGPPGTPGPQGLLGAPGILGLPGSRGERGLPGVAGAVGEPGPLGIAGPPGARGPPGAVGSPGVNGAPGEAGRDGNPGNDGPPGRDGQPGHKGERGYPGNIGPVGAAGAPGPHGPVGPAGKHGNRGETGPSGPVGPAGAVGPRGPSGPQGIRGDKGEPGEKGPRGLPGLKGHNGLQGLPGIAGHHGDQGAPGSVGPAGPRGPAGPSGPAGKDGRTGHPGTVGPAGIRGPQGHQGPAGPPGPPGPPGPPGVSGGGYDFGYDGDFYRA
Procedure: as §1, §2, §3

[1] = test system: endogenous hLAIR-1 ligand(s) on HT29 cells; test: Fusion protein blocking study on HT29 cells (flow cytometry); format: cell-based, human
Procedure: For fusion protein blocking studies, chimeric proteins of the extracellular domain of hLAIR-1 or LAIR-2 fused to the Fc region of human IgG1 were prepared as described previously(19). HT29 cells were pre-treated with 10% normal mouse serum to block aspecific interactions. Subsequently, HT29 cells were incubated with unlabeled hLAIR-1-IgG or LAIR-2-IgG for 10 minutes at room temperature and subsequently incubated with biotinylated hLAIR-1-IgG or LAIR-2-IgG for 30 minutes at room temperature. Binding of biotinylated proteins was detected with allophycocyanin (APC) conjungated streptavidin (BD Biosciences, San Diego, Calif.) and cells were analyzed by flow cytometry (FACSCalibur™, BD).

human collagen XVII = molecular target: T2, human collagen XVII; test: LAIR fusion protein staining of Ba/F3 cells transfected with human collagen XVII; format: binding
Procedure: Chimeric proteins of rat, mouse, and human LAIR-1 or human LAIR-2 fused to the Fc region of human IgG1 were prepared and cell lines were stained with these reagents in the absence or presence of blocking antibodies as described previously^11. When indicated, cells were incubated for 1 h with 100 units/ml chromatography purified C. histolyticum collagenase Type VII (Sigma) prior fusion-protein staining.

[2] = test system: hLAIR-1/collagen interaction; test: Blocking of binding of hLAIR-1 expressing K562 cells to plate-bound collagens I and III; format: cell-based, human; conditions: pre-incubation of plate-bound collagens
Procedure: Purified commercial collagens I, III (Sigma), II (Chemicon International), or BSA (100 μl/well, 20 μg/ml in PBS, 2 mM acetic acid) were coated overnight at 4° C. in 96-well MAXIsorp (Nunc) flat-bottom plates. After washings, wells were blocked with 1% (w/v) BSA. Meanwhile, 5×10^6 cells/ml wild type K562 cells or K562 transfectants were fluorescently labeled for 30 min at 37° C. with 5 μM calceine AM (Molecular Probes) in PBS. Cells were washed twice with RPMI/1% FCS and 100 μl medium of 1.5×10^6 cells/ml cells was added to each well and plates were incubated at 37° C. for 2 h. Input fluorescence was determined using a fluorescence plate reader (Fluoroskan Ascent, Thermo Labsystems), the plates were firmly flicked and washed for six times in culture medium. The retained fluorescence was determined for each well as a percentage of input fluorescence.
96-well MAXIsorp flat-bottom plates (Nunc) were coated overnight at 4° C. with purified collagens I or III (Sigma, 2 and 5 μg/ml respectively) or BSA (5 μg/ml) in 100 μl PBS, supplemented with 2 mM acetic acid. 5×10^6 cells/ml wild-type K562 or K562 stably transfected with hLAIR-1 were assayed for their capacity to adhere to the collagens in the 96 well plates as described before(15).

Row | Molecule | binding to collagen III (in words) (human collagen type III) | number of LAIR molecules / binding sites per single triple-helical collagen III molecule (Bmax) (human collagen type III; from Bmax of binding isotherm) | dissociation from collagen (in words) (human collagen type III; hLAIR-1-IgG: collagen I and III, LAIR-2-IgG: collagen III, collagen I comparable) | binding to collagen I (in words) (human collagen type I) | higher affinity as compared to most IgSF-members interacting with their ligands (human collagen type I; collagen I and III) | number of LAIR molecules / binding sites per single triple-helical collagen I molecule (Bmax) (human collagen type I; from Bmax of binding isotherm) | biotinylated LAIR-2-IgG staining of HT29 cells after pre-incubation [1] | binding to Ba/F3 cells stably transfected with human collagen XVII (human collagen XVII) | blocking of binding of hLAIR-1 expressing K562 cells to plate-bound collagens I and III [2]
1 | hLAIR-1-IgG: Chimeric protein of human LAIR-1 fused to the Fc region of human IgG1 (protein, left off: a dimerising Fc or GST, Chimeric protein of human LAIR-1 fused to the Fc region of human IgG1) QEEDLPRPSISAEPGTVIPLGSHVTFVCRGPVGVQTFRLERDSRSTYNDTEDVSQASPSESEARFRIDSVREGNAGLYRCIYYKPPKWSEQSDYLELLVKESSGGPDSPDTEPGSSAGPTQRPSDNSHNEHAPASQGLKAEHLY | high affinity | ~9.7 | relatively slow dissociation | high affinity | 20-1000 fold | approximately 10.4 | reduced | specific binding | –
2 | wild-type LAIR-2: wild-type LAIR-2 protein in concentrated supernatant from LAIR-2-transfected 293T cells (protein) QEGALPRPSISAEPGTVISPGSHVTFMCRGPVGVQTFRLEREDRAKYKDSYNVFRLGPSESEARFHIDSVSEGNAGLYRCLYYKPPGWSEHSDFLELLVKGTVPGTEASGFDAP | – | – | – | – | – | – | – | – | blocked
